As a reminder, the remaining activity is the share of the control activity or signal that is left under treatment. Broadly, the Km is the substrate concentration at which the rate is half of its maximum. In general, kcat refers to the maximal rate divided by the concentration of active sites.

The values that follow come from paper PMC10311867 (Biotechnology for Biofuels and Bioproducts, 2023).

One data set deals with T1, AmRha (Aspergillus mulundensis, UniProt A0A3D8R006).
T1 construct: gene DSM5745_09107; full-length synthetic gene (2589 bp, 862 aa); native-like purification (ammonium sulphate, DEAE)
T1 sequence (A0A3D8R006 1-862): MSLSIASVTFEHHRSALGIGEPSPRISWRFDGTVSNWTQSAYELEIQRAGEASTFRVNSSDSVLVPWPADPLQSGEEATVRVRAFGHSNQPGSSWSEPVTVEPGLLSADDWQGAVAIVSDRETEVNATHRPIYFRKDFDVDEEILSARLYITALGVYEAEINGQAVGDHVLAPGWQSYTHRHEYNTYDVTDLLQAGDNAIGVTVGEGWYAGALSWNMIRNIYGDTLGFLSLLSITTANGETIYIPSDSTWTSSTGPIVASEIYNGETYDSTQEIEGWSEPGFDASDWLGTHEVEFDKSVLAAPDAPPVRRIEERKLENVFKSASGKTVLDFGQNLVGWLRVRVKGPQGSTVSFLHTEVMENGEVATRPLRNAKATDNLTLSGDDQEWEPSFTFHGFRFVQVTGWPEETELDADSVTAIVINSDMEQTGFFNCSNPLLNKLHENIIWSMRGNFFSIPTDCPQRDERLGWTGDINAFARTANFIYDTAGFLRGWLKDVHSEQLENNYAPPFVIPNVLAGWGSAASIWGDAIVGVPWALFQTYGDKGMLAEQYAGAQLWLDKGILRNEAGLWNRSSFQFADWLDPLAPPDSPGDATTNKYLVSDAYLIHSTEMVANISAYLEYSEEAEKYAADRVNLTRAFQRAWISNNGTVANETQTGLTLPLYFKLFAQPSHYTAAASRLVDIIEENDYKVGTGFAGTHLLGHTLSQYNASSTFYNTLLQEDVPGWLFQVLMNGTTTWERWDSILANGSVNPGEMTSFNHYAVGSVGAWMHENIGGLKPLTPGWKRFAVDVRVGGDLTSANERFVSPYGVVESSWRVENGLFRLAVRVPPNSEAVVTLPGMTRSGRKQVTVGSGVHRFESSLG
As to the kind of experiment: residual activity on pNPR, […] nm. The class given is biochemical. The note with it: read-out: remaining enzyme activity at 5 mM.

Substrate in data set [1]: COc1ccc(-c2oc3c(CC=C(C)C)c(O[C@@H]4O[C@H](CO)[C@@H](O)[C@H](O)[C@H]4O)cc(O)c3c(=O)c2O[C@@H]2O[C@@H](C)[C@H](O)[C@@H](O)[C@H]2O[C@@H]2O[C@@H](C)[C@H](O)[C@@H](O)[C@H]2O)cc1
As to the kind of experiment: purified protein. The note with it: hydrolysis of terminal alpha-1,2-rhamnose to icariin; kinetic conditions not stated.

Substrate in data set [2]: C[C@@H]1O[C@@H](Oc2ccc([N+](=O)[O-])cc2)[C@H](O)[C@H](O)[C@H]1O
As to the kind of experiment: purified protein. The class given is biochemical, Aspergillus mulundensis. The note with it: pH 5.5, 65 °C, 50 mM sodium phosphate.

For `C[C@@H]1OC(O)[C@H](O)[C@H](O)[C@H]1O` (stereo partly drawn) [L-rhamnose], the remaining activity at 5000 µM at AmRha was 49.7%.

B1: AmRha (Aspergillus mulundensis) (protein)
chain: MSLSIASVTFEHHRSALGIGEPSPRISWRFDGTVSNWTQSAYELEIQRAGEASTFRVNSSDSVLVPWPADPLQSGEEATVRVRAFGHSNQPGSSWSEPVTVEPGLLSADDWQGAVAIVSDRETEVNATHRPIYFRKDFDVDEEILSARLYITALGVYEAEINGQAVGDHVLAPGWQSYTHRHEYNTYDVTDLLQAGDNAIGVTVGEGWYAGALSWNMIRNIYGDTLGFLSLLSITTANGETIYIPSDSTWTSSTGPIVASEIYNGETYDSTQEIEGWSEPGFDASDWLGTHEVEFDKSVLAAPDAPPVRRIEERKLENVFKSASGKTVLDFGQNLVGWLRVRVKGPQGSTVSFLHTEVMENGEVATRPLRNAKATDNLTLSGDDQEWEPSFTFHGFRFVQVTGWPEETELDADSVTAIVINSDMEQTGFFNCSNPLLNKLHENIIWSMRGNFFSIPTDCPQRDERLGWTGDINAFARTANFIYDTAGFLRGWLKDVHSEQLENNYAPPFVIPNVLAGWGSAASIWGDAIVGVPWALFQTYGDKGMLAEQYAGAQLWLDKGILRNEAGLWNRSSFQFADWLDPLAPPDSPGDATTNKYLVSDAYLIHSTEMVANISAYLEYSEEAEKYAADRVNLTRAFQRAWISNNGTVANETQTGLTLPLYFKLFAQPSHYTAAASRLVDIIEENDYKVGTGFAGTHLLGHTLSQYNASSTFYNTLLQEDVPGWLFQVLMNGTTTWERWDSILANGSVNPGEMTSFNHYAVGSVGAWMHENIGGLKPLTPGWKRFAVDVRVGGDLTSANERFVSPYGVVESSWRVENGLFRLAVRVPPNSEAVVTLPGMTRSGRKQVTVGSGVHRFESSLG
notes: full-length synthetic gene (2589 bp, 862 aa); native-like purification (ammonium sulphate, DEAE)
B1: in “purified protein [1]”, the Km amounted to 6.96 mM and the kcat turned out to be 37.11 s⁻¹. In addition, in the data set “purified protein [2]”, the Michaelis-Menten constant (Km) is listed as 0.30 mM and the catalytic constant (kcat) is 900.34 s⁻¹.
